Test results from the DeepSol protein solubility set.

Assay: soluble on expression in E. coli; label from the status in PepcDB or PDB records

Soluble on expression in E. coli, not soluble:
MGSDKIHHHHHHMDFYTIQFDDLANFESAGIFVNNKKWKHSHRILSSFEIIVMIEGVLPIQVSNTQYRVKPNKLLIIPPSAEHFGFEFTTSDIKFIWIHFNCSKFKINDEKSLFLSNIENSSIILPNYSNKLDVQRIILMSNHLLDITQENVNSIYLNLFLNSTLHEINYQTQKILKERQLSNLYLQPVREFIRINCFEDIDLGSIATHFNYNKSYLSRKYKKVMGIGIKQQINKFRISRAEYLLSNTSLTVQEISSQIGFNDEKYFMRLFRKNTNSTPSEYRKLYSQRHFNKE, MGSDKIHHHHHHMDHQIEDLLEHWLPLADDAWVLAVITHVQGSAYRKPGAMMLFHEFGQGAGILSGGCLEADLRRYAQNAMQTKQVMCVTYDASDESDASYRLGCGGIVDIMLIPLLKENHDLGLIDLVHAFRHGQSGYYQLPLVASGTDARQYQARFYSADAAPFPISDFAKSKIVKQESNDTLVIPLRPRFHIGIFGGGIDAKPIAAIAHSLGWQVTVIDGRTAYARAADFPHAHIIKQAVGELAANVIAQLDCAVVINHNLGLDAAVLKAIQPYSLDYVALLGPAHRRDKVLAMAGLSAQSFSGVFSAPAGLALGGELPSAIALSILAQCHGVLHGATLKQLDEIMG, MGSDKIHHHHHHMDHQMEDLLEHWLPLADDAWVLAVITHIQGSSYRKPGAMMLFHEFGQGAGILSGGCLEADLRRHAQNAMLSHQIGCVSYDATDESDASYRLGCGGKVDIMLIPLLKENHDLGLVDIVQAFRKGQSGFYQLPLVPAGSDARSYSAQFYSSENVPFATADFAKAGVLSQPSGDTLIIPIRPRFHLGIFGGGIDAKPVAAIAHSLGWQVSVFDSRTAYARTADFPHAHIVKQSPDDAAALIANLDCAVVMHHNLTLDAAALKVIQPFALKYVALLGPAHRRDKVLSIAALNVDSFSGFFSAPAGLALGGELPSAIALSILAQCHGVLHGAAFSTLDGMMP, MGSDKIHHHHHHMDHRQTFLSRYDTAACKAAHEIISCYSTSFGLATKLLRGRIRTDISNLYAMVRIADEIVDGTAQMAGLEPNAVSQLLDDYEAAVLAAPTQRFHADPILHAWALSARRCKFKTEHVQAFFTSMRNDLHKHNYEAAEFNEYVYGSAEVIGLMCLDAFLVEQHPRPHERTMMEHGARSLGSAFQKINFLRDLEEDTHVLGRNYFPQLTGELTDATKALLVADIRTDLAAAYRCIPLLPFDARVGVQAAADLFTALTDRIQEASAVEVTHTRIRIPKAQKIAIITRAPWRALHG, MGSDKIHHHHHHMDIPHQRLVYFQVTIEAGSVRQAAARLDIAPSAVSRQLSLIEEALGAPLLERSRQGVVPTPVGEMLLDYCRKRAALDDRFSETLDAYQRLETGHLSLTVGEGFVGDLLDTPLRTFTERYRGVRLDVNTGSTSDIIEAVVEDEAHIGLMYHERLHPQLRFWHSSRQPLVALMSPSHPLAAVENELPLATLSEHPMALWRTGHGVRQLVDEGFREAGLGQHVTMQTNSLSVLLHAARSELTLTLLPAFAAARELEDGALVARAVDCERFRQAHAHIITRVGRRMPKAGLQLLRHLERWMRAFKSRLVSG, MGSDKIHHHHHHMDKYLSANSLEGVIDNEFSMPAPRWLNTYPAGPYRFINREFFIIAYETDPDLLQAILPPDMELLEPVVKFEFIRMPDSTGFGDYTESGQVVPVRYKGEEGGFTISMFLDCHAPIAGGREIWGFPKKLAKPKLFVEEDTLIGILKYGSIDIAIATMGYKHRPLDAEKVLESVKKPVFLLKNIPNVDGTPLVNQLTKTYLTDITVKGAWTGPGSLELHPHALAPISNLYIKKIVSVSHFITDLTLPYGKVVADYLA, MGSDKIHHHHHHMDLMSFKEREISKKDCVELFEDTENFFDILKLADSIRKDIVGDTVTFVKNTNIETTNVCTMGCKFCAFSVSKNSPEAFKLDADEIAKKAVIAKKSGLTEVTIHGGIHPDVDTHFQVETINKVNSATSKLGGIYTHAYSPQEILNGAENAGLSIKEALKMLNEAGLRTIPGTAAEILDDEVRSDICPLKMSTKKWIDIMKTAHKTGIKTTSTIIYGHVEEYKHIVDHLSILKELQEETGGITEFIPMSFLHENTPLYKSGRVTDGASGLYELKLYAIARILFKESIKNIQAPRVKIGTKLSQLILKSGANDLGGTLVEDKVSKAAGSIYEDASVDLMKNAITSIGRIPKERTTLYEIIE, MGSDKIHHHHHHMDLRDLTYFETIAELGHLGRAAEKLNRSQPALTKSIQRLEESFGTRLFQRDGRRIKLTPVGELLQARGKELQQSIAQTQREVRDFASGMVGNIRVGCAATMAEYLMPKLTSALLQRTPDVTFKLVIGQDDLLRESLRSGQLDMIICALAPDSDDVTSFAVLKDEAVVIASKHHPIFKTPLQMSDLCAYRWVLPPVSVSSRKWLDTTFAAHGLPLPTVQIEANSISLLPGLIAQSNLLSFVARESLEFGKTMQHLREVPLEQTTLKRTIGVTLRKGGYLSPAAEGMLQMLRDNGGDFLGWG, MGSDKIHHHHHHMDNKEKEDEELSDELKDQPGPSEKPRTPTVVAFTKPSFYRVNTVISDVKVCRSMSYDMCGNHQQELLFDLYKDETTGKVYLPRFFKALLESGIRKDDPRIDKMIQNIKDADLLDDFVWGTQHIYLEKDTFKRYIGSSIGVVTKALKKQMIIPDWERFVSDMGEIFEDVRSHNEGDLATYIPQLSRVAPDSWAMSVCTIDGQRKMWGDALKPFCLQSVSKPFTYALVHDDIGPEELHAHVGQEPSGRLFNDISLDHNKKPHNPLINAGAIVVASLLKNKLPLADRFDFMIHACRKFVGSGYIGFDNSVFLSERETADRNYALSYYMREHKVFPKDLNLQDTLDLYFQICSIETNCDSLAVMAATLANGGVNPMNGERIVNNRACRDTLSLMYSCGMYDWSGQFAFHVGLPAKSGVSGDMIIVIPNVMGIALYSPRLDKLGNTVRGVKFAEQLVQKYNFHNYDSLIYSDNKKIDPRRQLKDDHDGQNRFMYATKLGDIAAIKRFLLMGHDIHCKDYDDRTVLHVAAAEGDVVTLEYVLSKWQEDPNPCDRYDRTPLDDAKHFNHTACVKLLEEAITVYNLKGQDD, MGSDKIHHHHHHMDNYEGSDPWNTSSNAWTKDDDHVVSTTNSEPSLNGISGEFNTLNFSTPLDTNEEDTGFLPTNDVLEESIWDDSRNPLGATGMSQTPNIAANETVIDKNDARDQNIEESEADLLDWTNNVRKTYRPLDADIIIIEEIPEREGLLFKHANYLVKHLIALPSTSPSEERTVVRRYSDFLWLREILLKRYPFRMIPELPPKRIGSQNADQLFLKKRRIGLSRFINLVMKHPKLSNDDLVLTFLTVRTDLTSWRKQATYDTSNEFADKKISQEFMKMWKKEFAEQWNQAASCIDTSMELWYRITLLLERHEKRIMQMVHERNFFETLVDNFSEVTPKLYPVQQNDTILDINNNLSIIKKHLETTSSICKQETEEISGTLSPKFKIFTDILLSLRSLFERYKIMAANNVVELQRHVELNKEKLESMKGKPDVSGAEYDRIKKIIQKDRRSIIEQSNRAWLIRQCILEEFTIFQETQFLITRAFQDWAKLNSNHAGLKLNEWEKLVTSIMDMPISRE, MGSDKIHHHHHHMDQEQLDALANAALEELARRNYGDFFYLSHGKQWDLLRHQKYITDRLQKIIDGEQKYYIIEIPPQHGKSTVITETFPAYYLMRHPDSLVMVVSYSKELFQKFGRKNREKFRLFSDQLFGLQISSETSSVSEWGVEGHLGSLYSTSILGGATGRGARLLIIDDPIKNRAEAESKTIRDKIYNEWQDTFYSRLTADASVIVIMTRWHEDDLAGRLLKEQTLPWEEIKIPAIAEDDDLLGRKPGEALAPEIGKDEEWAAKTKAVTGSRGWAALYQQRPTPAGGNIFKRSWIKFYVPTLSKKIELSLGDDVVILPRLFDRQAQSWDCTFKDTETSDYVSGQVWGKKRADFYLLDRHHERMGIVETMKAIDAMAAKWPKARGIYIEDKANGTAVIEMLKNELSGIIAVNPEGGKEVRANAVAPIWEAGNVYLPHPLVCPWVDDFINELVAFPNAEHDDDVDSMTQILNKMIGKVSLRERYLDN, MGSDKIHHHHHHMDSLLMNRRKFLYQFKNVRWAKGRRETYLCYVVKRRDSATSFSLDFGYLRNKNGCHVELLFLRYISDWDLDPGRCYRVTWFTSWSPCYDCARHVADFLRGNPNLSLRIFTARLYFCEDRKAEPEGLRRLHRAGVQIAIMTFKDYFYCWNTFVENHERTFKAWEGLHENSVRLSRQLRRILLPLYEVDDLRDAFRTLGL
